# Measured values: doi:10.1101/2021.10.18.464838 (2021)
# Where no end group is shown, it is not given here.
# T1: CHIP (recombinant human) (human, UniProt Q9UNE7 1-303)
# T1 chain: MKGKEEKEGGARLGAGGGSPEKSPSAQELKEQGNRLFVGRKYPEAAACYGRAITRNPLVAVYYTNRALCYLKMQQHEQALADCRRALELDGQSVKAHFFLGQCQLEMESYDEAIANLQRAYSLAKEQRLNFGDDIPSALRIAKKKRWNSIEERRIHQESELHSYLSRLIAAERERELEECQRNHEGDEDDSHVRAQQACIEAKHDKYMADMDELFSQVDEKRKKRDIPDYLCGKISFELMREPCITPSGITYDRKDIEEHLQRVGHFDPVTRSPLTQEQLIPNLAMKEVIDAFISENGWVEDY
# Experiments:
# [1] = target: DnaJB4 (recombinant, human, full length, wild type) (human, UniProt Q9UDY4 1-337); assay: FP
# DnaJB4 (recombinant, human, full length, wild type), sequence (Q9UDY4 whole entry): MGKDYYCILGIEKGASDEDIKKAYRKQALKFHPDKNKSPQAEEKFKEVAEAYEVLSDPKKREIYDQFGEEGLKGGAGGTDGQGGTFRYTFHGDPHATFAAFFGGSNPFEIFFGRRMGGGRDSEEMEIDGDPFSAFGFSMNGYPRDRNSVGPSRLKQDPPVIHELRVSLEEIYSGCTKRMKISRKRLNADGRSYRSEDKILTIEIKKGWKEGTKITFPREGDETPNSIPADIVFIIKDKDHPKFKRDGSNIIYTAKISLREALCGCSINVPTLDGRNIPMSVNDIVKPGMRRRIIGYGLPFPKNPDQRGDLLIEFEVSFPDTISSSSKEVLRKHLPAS
# CHIP (recombinant human) = target: T1, CHIP (recombinant human); assay: FP
binder,measurement,setting,value
GSGPEIEEVD-OH (not fully specified (N-terminus); printed as FITC-Ahx-GSGPEIEEVD) [Hsp72 phosphomimetic T636E tracer FITC-Ahx-GSGPEIEEVD],Kd,[1],1.68 µM
same,Kd,CHIP (recombinant human),5.04 µM
